# pKd: −log10 of the molar value.
# Key:
# [1] = molecular target: human FcRn (human) (UniProt P55899); test: BLI; pH 6.0
# [2] = molecular target: MD65 IgG-YTE (human); test: BLI
substance,measurement,setting,value
MD65 IgG-YTE,pKd,[1],7.70
human FcRn (from UniProt P55899 24-297) (receptor),fold change of affinity (steady state) against MD65 IgG,[2],10 fold
same,fold change of on-rate against MD65 IgG,[2],3 fold

# — article PMC7878817
